Test results reported in a protein production outcome set (Wang et al. 2014).

Experiment: label from the status in PepcDB records

Q: For “MSLTVVLIVDDHHLIRAGAKNLLEGAFSGMRVEGAETVSDALAFLEADNTVDLILLDVNLPDAEAIDGLVRLKRFDPSNAVALISGETDHELIRAALEAGADGFIPKSADPQVLIHAVSLILEGEIFLPRSYLQGGRMAEVATPLDEGHHHHHH”, which protein production is on record?
A: Its protein production is “not failed”.

Q: Which protein production does the source give for “KYPFLREAGSSFKDRDVTKMSDLIATWDGQDIKGPALIGVPLSKSSISHSGASFAPGTIRQALKHSSAYSAELGEHVVSELLYDLGDIDIHVTDIVKSHHHIFQTMHALLSDHPDWVPLILGGDNSISYSTIKAIAQTKGTTAVIQFDAHHDVRNTEDGGPTNGTPFRRLLDEEIIEGQHLIQLGIREFSNSQAYEAYAKKHNVNIHTMDMIREKGLIPTIKEILPVVQDKTDFIFISVDMDVLDQSHAPGCPAIGPGGLYTDELLEAVKYIAQQPNVAGIEIVEVDPTLDFRDMTSRAAAHVLLHALK” here?
A: Its protein production is “failed”.

Q: Which protein production does the source give for “MKSKNQFFVSLLLKSTLVFSSFLMFADISRGQATVSISQQKILAQALTNQEREELTRLRAEKGERAQIQADFEQAFSRTTVLLNIWLVILSLFPVAIIALFWLLRRVAIREIVNRAMSQFEGIEKLETQLIIVKQDAENLIQDAKSINRLLEREIESLQQKIKIEQENLSVVTSELLQAKTDNLAQITTEIANFQSKLESLVGEFAHRLTQSDSDTKKQRDITLENIIKIESLLEVQLTELQKEAERHQKAVLGNIDTAGVDFNNYLINLQAEAQKNKNSVFEDFSHFQAELQGDLQQQKDIQLGNIQEVANIFNNQVSELQLEAQKQKDSLDNNLNKLHTDAQIRKDKIIHRLEELKDLFQAQVAELQIQTQQELASYLSELKIDTGNSKEKIIEELEKSGSEFVSQFSELQHNAQQQKLLILQKLEKLETDFVNQLSELQLDAQRRKDVILQELAENQPPVVVEAQPIHKDQLEVLVNENEQPQLSFDECIEQGDSLFSQKSYEEAITCYEQAVKIQQDNAVAWFKHGLTLARLKRFKDAIKSYHQAIKIKPDYHQAWCDLGVAFGNIRRHQEAFAAFDKATQVKPDDAVVWLNRGLALIELEEYEEAIASFDQALELQPNSPKIWDKRGYSLVRLGRDDEAITSFNQALEIKPEYASAYYNKAACYAMQGDVNSSLENLQQAIILNPKYKEDAATDIDFDEIAGDEKFKQLIATIGIRFDF” here?
A: The protein production was “failed”.

Q: Which protein production does the source give for “MTAIPLTFYLGLAALLFSIGLYGVMTHKSGIRMIMCIELMLNSANLNLVAFSSYTDTLNGQVFAIFSIALAAAEAAVGFAIFMAIYRMHDKINLDELNILRW” here?
A: The protein production was “failed”.

Q: For “MAVDMFIKIGDVKGESKDKTHAEEIDVLAWSWGMSQSGSMHMGGGGGAGKVNVQDLSFTKYIDKSTPNLMMACSSGKHYPQAKLTIRKAGGENQVEYLIITLKEVLVSSVSTGGSGGEDRLTENVTLNFAQVQVDYQPQKADGAKDGGPVKYGWNIRQNVQA”, which protein production is on record?
A: Its protein production is “not failed”.

Q: For “MLNPFEKLQIPPKANQTIDTMLKRLPKIGGTTVRDREIRRLKEYYERIKKYYDFVEQFPKIDELHPFYLEATRIMTDINKLRICLSVTKKTSVISMKILKKYINQIRKSPENESNRIMRQAFGRVSSVLRKSSECIDRVIDVAKELKKIQGIDPTLPTIVVAGPPNVGKSTLVSKISTAKPEIASYPFTTKEVHVGHVILDDFRIQVIDTPGILDRPEAERNRIERKATNAIRNLNGIIVFMFDSSISSVLSVEGQIELFREVKLLKKIVIPVINKIDEKYEEYYKKIVDFLLSEGNEWHEISAEKGIGIDKLKEELFNLVKSSGTNEVSRD”, which protein production is on record?
A: Its protein production is “failed”.

Q: For “MNIEIKDTLISEEQLQEKVKELALQIERDFEGEEIVVIAVLKGSFVFAADLIRHIKNDVTIDFISASSYGNQTETTGKVKLLKDIDVNITGKNVIVVEDIIDSGLTLHFLKDHFFMHKPKALKFCTLLDKPERRKVDLTAEYVGFQIPDEFIVGYGIDCAEKYRNLPFIASVVTEESYNLKSR”, which protein production is on record?
A: The protein production was “not failed”.

Q: With “MKVGAVVITMGNRPEELRALLDSVAKQDGDPVQVVVVGNGSPVPEVPEGVRTVELPENLGIPGGRNVGIEAFGPGGSDVDILLFLDDDGLLARTDTAELCREAFAADDELGIISFRIADPDTGETQRRHVPRLRASDPMRSSRVTTFLGGANAVRTRVLTQVGGLPDAFFYAHEETDLAWRALDAGWMIDYRSDMVLNHPTTAPSRHAVYHRMVARNRVWLARRNLPALLVPVYLGVWMALTLLRRPSRPALKAWFGGFREGWATPCGPRRPMRWRTVWRLTRLGRPPVI” as the sequence, how does the protein production read?
A: The protein production was “failed”.

Q: With “MKCYLTGCIAGPLAFSEDLELIDYEPFPVDEIPGRLAESQMGGVSPEERIMLERLTPEYDEVVVEASPSPEYAGFRNLRFEVPSRAGIHLRENLEDILAEILDMPAGDFIHDALMSVARERLRESLRETDRFIIQSINALDELDEETGKLIERLREWYSLHFPELDGIKSHEQYVELIAEYGDRDQILKNFRMDVDESLGSDITSEDLHILRGLAESIRGLQRLREETERYIDIKMEKLAPNLRALAGSNVGARLIAHAGGLRELAMLPSSTIQVLGAEKALFRHLKSGAKPPKHGVIFQHPSIRSSPWWIRGKVARLLAGKIAIAVRKDVFSREFDPGIVESFNERFEAIKSNNPKPPARKKGFRKKRK” as the sequence, how does the protein production read?
A: The protein production was “failed”.

Q: For “MGPQRRLRPHEPWPTRSQPGSPAAAESSFLPSVSLLSWKLGDSAMSENRKLAAILAADVVGYSRLAGADEDLTLARLRTLRSDLIDPTIAVHHGRVVKRTGDGALVEFRSVVDAVRCAIEVQNGMVERNHGVPQDRRIEFRIGIHLGDVVEESDGDLMGDGVNIASRLEGVAAAGAICLSEDAYRQVKARLDLSVNDLGSTQLKNIAEPIRVYSLQVGSAGTKLAASPETAVSQPATAAPPKLSIAVLPFTNMSGDAEQDYFADGISEDIITALSKLSQLFVIARNSSFTFKGKNVHVQEVGTKLGVRHVLEGSVRKSGNRVRITAQLIDATTGGHLWAERFDRDLTDIFAVQDDVTQQIVGALAVNLTEGDRQRLAPGQTRHPEAYDCFLRGRELWHRLTRQTNSDARDLLQRAVDLDPNFASAHAFLALTHGLDYLNRWSALPQRSLEQAEEVATLAVARDDSDPVAHWALSLVSLYLRQHDRAISEAERAIVLNPNFAEGHVSLGEALIYSGRSGEALAYFDRASVLNPYFPDIVLHFQALALFQLGRYEEAVELLLQRVSRNPVTDVSRALLAACYGHLGRFEEARATWQEVMRVNPDYSLEYRRKVLPFKNPADFELVVEGLRKAGVVQ”, which protein production is on record?
A: The protein production was “failed”.

Q: With “MSESNRQRATGLVQAYYEAFNRGDWDAMLAFLAEDVAHDLNQGPREIGRAAFASFLQRMNDSYREQLRDIVVTANDEGTRVGAEYVVHGVYHTTDEGLPDANGQTYVLPGGAFFDVRDGQITRVTNYYNLQEWIAQVSR” as the sequence, how does the protein production read?
A: The protein production was “not failed”.

Q: For “MIAMDIREIGLRLVGEAIKAADPYRAVLNAVKVSDDKIIVQGKEFEIKGKVYVIALGKAACEMARAIEDILDVEDGVAVTKYGYGKELKRIKVIEAGHPIPDEKSILGAKEALSILNRARENDIVFILISGGGSALFELPEEGISLEDLKLTTDLLLKSGAKIHEINTVRKHISKVKGGKLAKMIKGTGIVLIISDVVGDNLEAIASGPTVKDPTTFEDAKRILELYDIWEKVPESVRLHIERGLRGEVEETLKEDLPNVHNFLIASNSISCEAIAREAQRLGFKAYIMTTTLEGEAKDAGLFIGSIVQEIAERGRPFEPPVVLVFGGETTVTIEGKGGKGGPNQEIALSATRKISDLEALIVAFDTDGTDGPTDAAGGIVDGTTYKKLREKGIDVEKVLKEHNSYEALKKVGGLLFTGPTGTNVNSIVIAIVTSKRGRT”, which protein production is on record?
A: Its protein production is “not failed”.

Q: With “SDSAFANLDAAGFLQIWQHFDADDNGYIEGKELDDFFRHMLKKLQPKDKITDERVQQIKKSFMSAYDATFDGRLQIEELANMILPQEENFLLIFRREAPLDNSVEFMKIWRKYDADSSGYISAAELKNFLKDLFLQHKKKIPPNKLDEYTDAMMKIFDKNKDGRLDLNDLARILALQENFLLQFKMDASSQVERKRDFEKIFAHYDVSRTGALEGPEVDGFVKDMMELVRPSISGGDLDKFRECLLTHCDMNKDGKIQKSELALCLGLKHKP” as the sequence, how does the protein production read?
A: The protein production was “not failed”.

Q: With “MPSPRLQHSKPPRRLSRAQKHSSGSSNTSTANRRAHLRLCLERLKVLIPLGPDCTRHTTLGLLNKAKAHIKKLEEAERKSQHQLENLEREQRFLKWRLEQLQGPQEMERIRMDSIGSTISSDRSDSEREEIEVDVESTEFSHGEVDNISTTSISDIDDHSSLPSIGSDEGYSSASVKLSFTS” as the sequence, how does the protein production read?
A: The protein production was “failed”.
